Experimental data as given in IntAct's records for PubMed 17525731.

Key:
[1] = target: creb1_mouse Creb1 (UniProt Q01147)
[2] = target: Creb1, Q01147-1
[3] = target: creb1_mouse Creb1 (UniProt Q01147); remark: listed apart in the source

Chain of creb1_mouse Creb1 (Q01147 whole entry): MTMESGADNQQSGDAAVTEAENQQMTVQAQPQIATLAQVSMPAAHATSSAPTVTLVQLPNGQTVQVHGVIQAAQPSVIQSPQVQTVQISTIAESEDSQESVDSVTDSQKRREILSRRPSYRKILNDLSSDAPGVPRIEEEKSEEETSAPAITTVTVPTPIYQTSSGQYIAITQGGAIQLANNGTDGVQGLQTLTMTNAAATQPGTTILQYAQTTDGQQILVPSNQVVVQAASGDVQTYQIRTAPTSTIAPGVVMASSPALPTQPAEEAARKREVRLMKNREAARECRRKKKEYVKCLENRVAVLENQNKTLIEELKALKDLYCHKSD
Chain of Creb1, Q01147-1 (Q01147 other isoform, or with tags, fused parts or gaps): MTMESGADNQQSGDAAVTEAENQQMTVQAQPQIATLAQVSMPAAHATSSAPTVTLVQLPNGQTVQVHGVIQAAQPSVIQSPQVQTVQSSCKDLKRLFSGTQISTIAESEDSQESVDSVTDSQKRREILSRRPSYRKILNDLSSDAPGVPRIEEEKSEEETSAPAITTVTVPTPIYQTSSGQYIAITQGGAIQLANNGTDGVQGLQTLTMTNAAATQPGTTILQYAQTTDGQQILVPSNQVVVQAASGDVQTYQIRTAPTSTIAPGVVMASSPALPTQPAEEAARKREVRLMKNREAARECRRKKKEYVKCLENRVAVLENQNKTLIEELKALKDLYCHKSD

effect of a mutation on the interaction [1]	effect of a mutation on the interaction [2]	effect of a mutation on the interaction [3]	Substance
disrupting interaction			Histone acetyltransferase p300 (Homo sapiens), Q09472 A634Q
disrupting interaction			Histone acetyltransferase p300 (Homo sapiens), Q09472 Y630A
disrupting interaction			Histone acetyltransferase p300 (Homo sapiens), Q09472 Y638A
	disrupting interaction	disrupting interaction	Histone lysine acetyltransferase CREBBP (Mus musculus), P45481 A654Q
	disrupting interaction	disrupting interaction	Histone lysine acetyltransferase CREBBP (Mus musculus), P45481 Y650A
	disrupting interaction	disrupting interaction	Histone lysine acetyltransferase CREBBP (Mus musculus), P45481 Y658A
